Measured values published in patent US20260232827A1 (Zymeworks, published 2026).

T1: human NaPi2c (human, UniProt Q8N130 1-599)
T1 construct: whole, on cells; also called Hu NaPi2c; SLC34A3
T1 sequence (looked up): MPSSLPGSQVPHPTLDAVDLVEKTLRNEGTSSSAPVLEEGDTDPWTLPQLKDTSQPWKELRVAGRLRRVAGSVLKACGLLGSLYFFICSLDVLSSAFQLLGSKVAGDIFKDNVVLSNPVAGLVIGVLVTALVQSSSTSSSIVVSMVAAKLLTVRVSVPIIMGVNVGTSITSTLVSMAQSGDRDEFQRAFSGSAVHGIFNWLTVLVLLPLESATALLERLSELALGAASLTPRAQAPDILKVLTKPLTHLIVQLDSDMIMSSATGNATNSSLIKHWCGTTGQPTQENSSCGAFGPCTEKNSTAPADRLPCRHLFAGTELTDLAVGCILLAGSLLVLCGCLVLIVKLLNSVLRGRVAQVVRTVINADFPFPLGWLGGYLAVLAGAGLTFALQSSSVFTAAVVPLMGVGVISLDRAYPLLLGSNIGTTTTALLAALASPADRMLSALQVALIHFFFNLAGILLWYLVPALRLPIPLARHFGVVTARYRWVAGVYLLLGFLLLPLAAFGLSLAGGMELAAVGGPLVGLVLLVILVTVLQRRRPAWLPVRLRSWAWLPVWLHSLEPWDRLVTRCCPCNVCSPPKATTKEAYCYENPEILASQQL

T2: Construct 6 (human NaPi2b del 317-333) (human, UniProt O95436 1-690)
T2 construct: also called CL_#29919
T2 sequence: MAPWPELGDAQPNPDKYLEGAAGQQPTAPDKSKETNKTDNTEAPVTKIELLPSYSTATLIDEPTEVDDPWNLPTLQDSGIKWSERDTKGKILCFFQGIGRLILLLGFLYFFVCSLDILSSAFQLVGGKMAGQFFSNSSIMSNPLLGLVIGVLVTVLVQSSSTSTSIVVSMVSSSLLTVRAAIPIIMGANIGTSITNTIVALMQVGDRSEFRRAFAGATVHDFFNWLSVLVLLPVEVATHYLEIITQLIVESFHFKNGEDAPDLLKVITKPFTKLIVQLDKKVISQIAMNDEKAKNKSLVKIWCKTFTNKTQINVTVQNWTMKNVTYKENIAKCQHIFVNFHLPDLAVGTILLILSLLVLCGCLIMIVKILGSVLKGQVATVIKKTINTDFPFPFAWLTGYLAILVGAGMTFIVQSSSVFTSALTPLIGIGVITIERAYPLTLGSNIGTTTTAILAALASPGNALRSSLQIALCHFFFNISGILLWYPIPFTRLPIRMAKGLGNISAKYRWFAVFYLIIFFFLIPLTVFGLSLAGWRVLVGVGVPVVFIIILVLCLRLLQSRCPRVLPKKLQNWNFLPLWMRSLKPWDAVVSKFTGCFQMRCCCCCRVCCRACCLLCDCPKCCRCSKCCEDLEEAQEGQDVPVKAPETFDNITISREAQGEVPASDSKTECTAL

T3: Full length human NaPi2b (sodium-dependent phosphate transporter 2B, SLC34A2) (human, UniProt O95436 1-690)
T3 construct: also called huNaPi2b; CL_#13432
T3 sequence: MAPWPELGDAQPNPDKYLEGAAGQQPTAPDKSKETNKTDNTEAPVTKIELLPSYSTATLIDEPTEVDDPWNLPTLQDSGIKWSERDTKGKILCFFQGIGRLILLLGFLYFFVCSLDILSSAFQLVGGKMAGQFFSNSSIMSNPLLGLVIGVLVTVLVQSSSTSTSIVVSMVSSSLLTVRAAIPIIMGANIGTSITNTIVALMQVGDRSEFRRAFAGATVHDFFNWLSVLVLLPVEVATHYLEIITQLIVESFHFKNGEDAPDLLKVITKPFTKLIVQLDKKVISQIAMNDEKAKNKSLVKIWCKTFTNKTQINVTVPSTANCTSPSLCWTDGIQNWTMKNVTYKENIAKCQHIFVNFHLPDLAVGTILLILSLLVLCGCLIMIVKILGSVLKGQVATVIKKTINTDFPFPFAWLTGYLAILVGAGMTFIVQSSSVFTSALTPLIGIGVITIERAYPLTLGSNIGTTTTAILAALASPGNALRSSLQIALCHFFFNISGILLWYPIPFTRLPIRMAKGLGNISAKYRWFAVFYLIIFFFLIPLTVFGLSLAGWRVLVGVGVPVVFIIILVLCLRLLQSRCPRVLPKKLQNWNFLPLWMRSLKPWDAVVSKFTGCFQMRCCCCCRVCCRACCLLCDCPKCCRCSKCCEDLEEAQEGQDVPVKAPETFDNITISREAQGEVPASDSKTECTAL

B1: v18992 (MX35), reference anti-NaPi2b antibody (antibody, human IgG1, kappa)
heavy 1: GQVQLVQSGAEVVKPGASVKMSCKASGYTFTGYNIHWVKQAPGQGLEWIGAIYPGNGDTSYKQKFRGRATLTADTSTSTVYMELSSLRSEDSAVYYCARGETARATFAYWGQGTLVTVSSASTKGPSVFPLAPSSKSTSGGTAALGCLVKDYFPEPVTVSWNSGALTSGVHTFPAVLQSSGLYSLSSVVTVPSSSLGTQTYICNVNHKPSNTKVDKKVEPKSCDKTHTCPPCPAPELLGGPSVFLFPPKPKDTLMISRTPEVTCVVVDVSHEDPEVKFNWYVDGVEVHNAKTKPREEQYNSTYRVVSVLTVLHQDWLNGKEYKCKVSNKALPAPIEKTISKAKGQPREPQVYVYPPSRDELTKNQVSLTCLVKGFYPSDIAVEWESNGQPENNYKTTPPVLDSDGSFALVSKLTVDKSRWQQGNVFSCSVMHEALHNHYTQKSLSLSPG
heavy 2: not shown
light: GDIQMTQSPSSLSASVGDRVTITCSASQDIGNFLNWYQQKPGKTVKVLIYYTSSLYSGVPSRFSGSGSGTDYTLTISSLQPEDFATYYCQQYSKLPLTFGQGTKLELKRTVAAPSVFIFPPSDEQLKSGTASVVCLLNNFYPREAKVQWKVDNALQSGNSQESVTEQDSKDSTYSLSSTLTLSKADYEKHKVYACEVTHQGLSSPVTKSFNRGEC
B2: MX35 (v18992), reference anti-NaPi2b antibody (antibody, human IgG1, kappa)
heavy 1: GQVQLVQSGAEVVKPGASVKMSCKASGYTFTGYNIHWVKQAPGQGLEWIGAIYPGNGDTSYKQKFRGRATLTADTSTSTVYMELSSLRSEDSAVYYCARGETARATFAYWGQGTLVTVSSASTKGPSVFPLAPSSKSTSGGTAALGCLVKDYFPEPVTVSWNSGALTSGVHTFPAVLQSSGLYSLSSVVTVPSSSLGTQTYICNVNHKPSNTKVDKKVEPKSCDKTHTCPPCPAPELLGGPSVFLFPPKPKDTLMISRTPEVTCVVVDVSHEDPEVKFNWYVDGVEVHNAKTKPREEQYNSTYRVVSVLTVLHQDWLNGKEYKCKVSNKALPAPIEKTISKAKGQPREPQVYVYPPSRDELTKNQVSLTCLVKGFYPSDIAVEWESNGQPENNYKTTPPVLDSDGSFALVSKLTVDKSRWQQGNVFSCSVMHEALHNHYTQKSLSLSPG
heavy 2: not shown
light: GDIQMTQSPSSLSASVGDRVTITCSASQDIGNFLNWYQQKPGKTVKVLIYYTSSLYSGVPSRFSGSGSGTDYTLTISSLQPEDFATYYCQQYSKLPLTFGQGTKLELKRTVAAPSVFIFPPSDEQLKSGTASVVCLLNNFYPREAKVQWKVDNALQSGNSQESVTEQDSKDSTYSLSSTLTLSKADYEKHKVYACEVTHQGLSSPVTKSFNRGEC
B3: v22277 (palivizumab, anti-RSV negative control, heterodimeric Fc) (antibody, human IgG1, kappa)
heavy 1: GQVTLRESGPALVKPTQTLTLTCTFSGFSLSTSGMSVGWIRQPPGKALEWLADIWWDDKKDYNPSLKSRLTISKDTSKNQVVLKVTNMDPADTATYYCARSMITNWYFDVWGAGTTVTVSSASTKGPSVFPLAPSSKSTSGGTAALGCLVKDYFPEPVTVSWNSGALTSGVHTFPAVLQSSGLYSLSSVVTVPSSSLGTQTYICNVNHKPSNTKVDKKVEPKSCDKTHTCPPCPAPELLGGPSVFLFPPKPKDTLMISRTPEVTCVVVDVSHEDPEVKFNWYVDGVEVHNAKTKPREEQYNSTYRVVSVLTVLHQDWLNGKEYKCKVSNKALPAPIEKTISKAKGQPREPQVYVYPPSRDELTKNQVSLTCLVKGFYPSDIAVEWESNGQPENNYKTTPPVLDSDGSFALVSKLTVDKSRWQQGNVFSCSVMHEALHNHYTQKSLSLSPG
heavy 2: not shown
light: GDIQMTQSPSTLSASVGDRVTITCKSQLSVGYMHWYQQKPGKAPKLLIYDTSKLASGVPSRFSGSGSGTEFTLTISSLQPDDFATYYCFQGSGYPFTFGGGTKLEIKRTVAAPSVFIFPPSDEQLKSGTASVVCLLNNFYPREAKVQWKVDNALQSGNSQESVTEQDSKDSTYSLSSTLTLSKADYEKHKVYACEVTHQGLSSPVTKSFNRGEC
notes: also called neg control
B4: v38591 (humanized anti-NaPi2b antibody, wild-type Fc) (antibody, human IgG1, kappa)
heavy: not shown
light: DVQMTQSPSSLSASVGDRVTITCRASQDVYSYLNWYQQKPGKAVKLLIYYTSRLQSGVPSRFSGSGSGTDYTLTISSLQPEDFATYYCQQYNIFPWTFGQGTKLEIKRTVAAPSVFIFPPSDEQLKSGTASVVCLLNNFYPREAKVQWKVDNALQSGNSQESVTEQDSKDSTYSLSSTLTLSKADYEKHKVYACEVTHQGLSSPVTKSFNRGEC
notes: also called v38591 Wild-type; H1L2
B5: v38591 (humanized anti-NaPi2b antibody, H1L2, wild-type Fc, heavy chains with C-terminal lysine) (antibody, human IgG1, kappa)
heavy: not shown
light: DVQMTQSPSSLSASVGDRVTITCRASQDVYSYLNWYQQKPGKAVKLLIYYTSRLQSGVPSRFSGSGSGTDYTLTISSLQPEDFATYYCQQYNIFPWTFGQGTKLEIKRTVAAPSVFIFPPSDEQLKSGTASVVCLLNNFYPREAKVQWKVDNALQSGNSQESVTEQDSKDSTYSLSSTLTLSKADYEKHKVYACEVTHQGLSSPVTKSFNRGEC
notes: Full-size human IgG1/kappa antibody; also called v38591 (wild-type Fc)
B6: v18993 (lifastuzumab), reference anti-NaPi2b antibody (antibody, human IgG1, kappa)
heavy 1: GEVQLVESGGGLVQPGGSLRLSCAASGFSFSDFAMSWVRQAPGKGLEWVATIGRVAFHTYYPDSMKGRFTISRDNSKNTLYLQMNSLRAEDTAVYYCARHRGFDVGHFDFWGQGTLVTVSSASTKGPSVFPLAPSSKSTSGGTAALGCLVKDYFPEPVTVSWNSGALTSGVHTFPAVLQSSGLYSLSSVVTVPSSSLGTQTYICNVNHKPSNTKVDKKVEPKSCDKTHTCPPCPAPELLGGPSVFLFPPKPKDTLMISRTPEVTCVVVDVSHEDPEVKFNWYVDGVEVHNAKTKPREEQYNSTYRVVSVLTVLHQDWLNGKEYKCKVSNKALPAPIEKTISKAKGQPREPQVYVYPPSRDELTKNQVSLTCLVKGFYPSDIAVEWESNGQPENNYKTTPPVLDSDGSFALVSKLTVDKSRWQQGNVFSCSVMHEALHNHYTQKSLSLSPG
heavy 2: not shown
light: GDIQMTQSPSSLSASVGDRVTITCRSSETLVHSSGNTYLEWYQQKPGKAPKLLIYRVSNRFSGVPSRFSGSGSGTDFTLTISSLQPEDFATYYCFQGSFNPLTFGQGTKVEIKRTVAAPSVFIFPPSDEQLKSGTASVVCLLNNFYPREAKVQWKVDNALQSGNSQESVTEQDSKDSTYSLSSTLTLSKADYEKHKVYACEVTHQGLSSPVTKSFNRGEC

Legend:
human NaPi2c = molecular target: T1, human NaPi2c; experiment: flow cytometry on HEK293-6e cells transfected with human NaPi2c, 24 h at 4 C, anti-human IgG Fc AF647
[1] = molecular target: T2, Construct 6 (human NaPi2b del 317-333); experiment: flow cytometry, transfected HEK293-6e cells, antibody 20 nM
[2] = molecular target: T4, Construct 5 (chimeric human NaPi2b, swap in NaPi2a in 304-348) (human); experiment: as above
T4 construct: also called CL_#13436

[3] = molecular target: T5, Construct 1 (chimeric human NaPi2b, swap in NaPi2c in 239-259) (human); experiment: as above
T5 construct: also called CL_#29914

[4] = molecular target: T3, Full length human NaPi2b …; experiment: as above

Binder | binding result (human NaPi2c) | Background-Subtracted AF647 Mean Fluorescence Intensity [1] | Background-Subtracted AF647 Mean Fluorescence Intensity [2] | Background-Subtracted AF647 Mean Fluorescence Intensity [3] | Background-Subtracted AF647 Mean Fluorescence Intensity [4]
B1 | no binding (tested: 200 nM) |  |  |  | 
B2 |  | 67 MFI | 79 MFI | 1820 MFI | 1250 MFI
B3 | no binding (tested: 200 nM) |  |  |  | 
B4 | no binding (tested: 200 nM) |  |  |  | 
B5 |  | -7 MFI |  | 1860 MFI | 1420 MFI
B6 | no binding (tested: 200 nM) |  |  |  | 
